According to patent US20090060916A1 (published 2009):
Numbering of substitutions follows the chain as printed. “And” between values parts separate entries of the source, which are not always exact repeats. Equal entries are not always repeated.

T1: human IL-4 (human, UniProt P05112 25-153, biotinylated in the receptor binding assay and on the Biacore chip)
T1 construct: also called interleukin-4; biotinylated IL-4
T1 sequence (looked up): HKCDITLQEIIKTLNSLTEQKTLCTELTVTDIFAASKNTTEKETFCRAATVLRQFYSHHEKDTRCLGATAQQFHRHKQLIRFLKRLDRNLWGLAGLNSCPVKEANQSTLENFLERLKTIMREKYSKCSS

B1: DOM9-112-210-ASTKGPS-DOM10-208 (bispecific antibody)
chain: EVQLLESGGGLVQPGGSLRLSCAASGFTFRNFGMGWVRQAPGKGLEWVSWIISSGTETYYADSVKGRFTISRDNSKNTLYLQMNSLRAEDTAVYYCAKSLGRFDYWGQGTLVTVSSASTKGPSDIQMTQSPSSLSASVGDRVTITCRASSPITDGLAWYQQKPGKAPKLLIDTGSRLQSGVPSRFSGSGSGTDFTLTISSLQPEDFATYYCRQGAMGSYTFGQGTKVEIKR
notes: in-line fusion, from pDOM5
B2: DOM9-112-210-ASTKGPS-DOM10-215 (bispecific antibody)
chain: EVQLLESGGGLVQPGGSLRLSCAASGFTFRNFGMGWVRQAPGKGLEWVSWIISSGTETYYADSVKGRFTISRDNSKNTLYLQMNSLRAEDTAVYYCAKSLGRFDYWGQGTLVTVSSASTKGPSDIQMTQSPSSLSASVGDRVTITCRASQNIFADLNWYQQKPGKAPKLLIYMGSRLQSGVPSRFSGSGSGTDFTLTISSLQPEDFATYYCQQDYKFPLTFGQGTKVEIKR
notes: in-line fusion, from pDOM5
B3: DOM9-112-210-ASTKGPS-DOM10-275 (bispecific antibody)
chain: EVQLLESGGGLVQPGGSLRLSCAASGFTFRNFGMGWVRQAPGKGLEWVSWIISSGTETYYADSVKGRFTISRDNSKNTLYLQMNSLRAEDTAVYYCAKSLGRFDYWGQGTLVTVSSASTKGPSEVQLLESGGGLVQPGGSLRLSCAASGFTFDREEMDWVRQAPGKGLEWVSTISPSGRKTYYADSVKGRFTISRDNSKNTLYLQMNSLRAEDTAVYYCAKHGTGFDYWGQGTLVTVSS
notes: in-line fusion, from pDOM5
B4: DOM9-112-210-ASTKGPS-DOM10-276 (bispecific antibody)
chain: B3 chain with D153R, R154D, E155Y, T173S, S175G, R179S, K180E, H222A, G223Y, G225S
notes: in-line fusion, from pDOM5
B5: DOM10-212-TVAAPS-DOM9-155-78 (bispecific antibody)
chain: DIQMTQSPSSLSASVGDRVTITCRASSVILNELHWYQQKPGKAPKLLISAVSRLQSGVPSRFSGSGSGTDFTLTISSLQPEDFATYYCLQTFWGPFTFGQGTKVEIKRTVAAPSDIQMTQSPSSLSASVGDRVTITCRASRHIGDWLHWYQQKPGKAPKLLIAWASTLDSGVPSRFSGSGSGTDFTLTISSLQPEDFATYYCLQEGWGPPTFGQGTKVEIKR
notes: in-line fusion, from pDOM5
B6: DOM10-224-TVAAPS-DOM9-155-78 (bispecific antibody)
chain: DIQMTQSPSSLSASVGDRVTITCRASPNIAVDLAWYQQKPGKAPKLLIRGVSRLQSGVPSRFSGSGSGTDFTLTISSLQPEDFATYYCRQGAMGSYTFGQGTKVEIKRTVAAPSDIQMTQSPSSLSASVGDRVTITCRASRHIGDWLHWYQQKPGKAPKLLIAWASTLDSGVPSRFSGSGSGTDFTLTISSLQPEDFATYYCLQEGWGPPTFGQGTKVEIKR
notes: in-line fusion, from pDOM5
B7: DOM10-276-ASTKGPS-DOM9-155-78 (bispecific antibody)
chain: EVQLLESGGGLVQPGGSLRLSCAASGFTFRDYEMDWVRQAPGKGLEWVSSIGPSGSETYYADSVKGRFTISRDNSKNTLYLQMNSLRAEDTAVYYCAKAYTSFDYWGQGTLVTVSSASTKGPSDIQMTQSPSSLSASVGDRVTITCRASRHIGDWLHWYQQKPGKAPKLLIAWASTLDSGVPSRFSGSGSGTDFTLTISSLQPEDFATYYCLQEGWGPPTFGQGTKVEIKR
notes: in-line fusion, from pDOM5
B8: DOM10-53-434 (other)
VH: GVQLLESGGGLVQPGGSLRLSCAASGFIFAWYDMGWVRQAPGKGLEWVSSIDWKGGKTYYADSVKGRFTISRDNSKNTLYLQMNSLRAEDTAVYYCATAEDEPGYDYWGQGTLVTVSS
notes: VH dAb
B9: DOM10-53-472 (other)
VH: B8 VH with G35K, K54H, G56K, K57I
notes: VH dAb
B10: DOM10-53-475 (other)
VH: B8 VH with I28T, K54H, G56K, K57I
notes: VH dAb
B11: DOM10-53-531 (other)
VH: B8 VH with I28T
notes: VH dAb
B12: DOM10-53-612 (other)
VH: B8 VH with I28A, W31A, G56M, K57E
notes: VH dAb
B13: DOM10-275-94 (other)
VH: EVQLLESGGGLVQPGGSLRLSCAASGFTFDVAEMDWVRQAPGKGLEWVSTISPSRRGTYYADSVKGRFTISRDNSKNTLYLQMNSLRAEDTAVYYCAKAYTGRSWWGPGTLVTVSS
B14: DOM10-275-99 (other)
VH: B13 VH with Q3H, V31S, V93I, W105Y
B15: DOM9-112-210-DOM10-53-546 (bispecific antibody)
chain: EVQLLESGGGLVQPGGSLRLSCAASGFTFRNFGMGWVRQAPGKGLEWVSWIISSGTETYYADSVKGRFTISRDNSKNTLYLQMNSLRAEDTAVYYCAKSLGRFDYWGQGTLVTVSSASTKGPSGVQLLESGGGLVQPGGSLRLSCAASGFVFPWYDMGWVRQAPGKGLEWVSSIDWKGGKTYYADSVKGRFTISRDNSKNTLYLQMNSLRAEDTAVYYCATAEDEPGYDYWGQGTLVTVSS
notes: in-line fusion, from pDOM5
B16: DOM10-215 (other)
VL: DIQMTQSPSSLSASVGDRVTITCRASQNIFADLNWYQQKPGKAPKLLIYMGSRLQSGVPSRFSGSGSGTDFTLTISSLQPEDFATYYCQQDYKFPLTFGQGTKVEIKR
notes: Vk dAb
B17: DOM10-277 (other)
VH: EVQLLESGGGLVQPGGSLRLSCAASGFTFSSYEMDWVRQAPGKGLEWVSTISADGVTTYYADSVKGRFTISRDNSKNTLYLQMNSLRAEDTAVYYCAKAFDAFDYWGQGTLVTVSS
notes: VH dAb
B18: DOM10-212 (other)
VL: DIQMTQSPSSLSASVGDRVTITCRASSVILNELHWYQQKPGKAPKLLISAVSRLQSGVPSRFSGSGSGTDFTLTISSLQPEDFATYYCLQTFWGPFTFGQGTKVEIKR
notes: Vk dAb
B19: DOM10-270 (other)
VL: B18 VL with F96Y
notes: Vk dAb
B20: DOM10-213 (other)
VL: DIQMTQSPSSLSASVGDRVTITCRASQAIPWGLNWYQQKPGKAPKLLIYDVSSLQSGVPSRFSGSGSGTDFTLTISSLQPEDFATYYCQQDIHIPMTFGQGTKVEIKR
notes: Vk dAb
B21: DOM10-208 (other)
VL: DIQMTQSPSSLSASVGDRVTITCRASSPITDGLAWYQQKPGKAPKLLIDTGSRLQSGVPSRFSGSGSGTDFTLTISSLQPEDFATYYCRQGAMGSYTFGQGTKVEIKR
notes: Vk dAb
B22: DOM10-224 (other)
VL: B21 VL with S27P, P28N, T30A, D31V, G32D, D49R, T50G, G51V
notes: Vk dAb
B23: DOM10-236 (other)
VH: EVQLLESGGGLVQPGGSLRLSCAASGFTFPKYDMMWVRQAPGKGLEWVSSIDHLGVNTYYADSVKGRFTISRDNSKNTLYLQMNSLRAEDTAVYYCAKESDWPSFDYWGQGTLVTVSS
notes: VH dAb
B24: DOM10-53-396 (other)
VH: B8 VH with V37A, D52G, K54H, G56N, K57V
notes: VH dAb

Biological target: T2, human IL-13 (human, UniProt P35225 35-146, biotinylated on the Biacore chip)
T2 construct: also called hIL-13; recombinant human IL-13
T2 sequence (P35225 35-146 limits assumed): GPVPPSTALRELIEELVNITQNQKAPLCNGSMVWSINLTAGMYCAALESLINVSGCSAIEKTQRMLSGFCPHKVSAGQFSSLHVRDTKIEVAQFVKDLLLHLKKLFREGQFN
Assay: IL-13 Biacore

Binder | binding result
B1 | binds
B2 | binds
B3 | binds
B4 | binds
B5 | binds
B6 | binds
B7 | binds

Biological target: T2, human IL-13
Assay: assay not named ('Potency IC50')

Binder | IC50
B8 | 0.29 nM
B9 | 0.054 nM
B10 | 0.046 nM
B11 | 0.34 nM
B12 | 20 nM

Biological target: T2, human IL-13
Assay: cell-based or functional assay

Binder | EC50, HEK293 STAT6 SEAP reporter assay, hIL-13
B13 | 2.3 nM
B14 | 2.8 nM

Biological target: cynomolgous IL-13 (cynomolgous, UniProt Q0PW92 19-132, The Biacore assay used biotinylated cIL-13 according to our card. The biotin cannot be carried in the letters.)
Sequence (Q0PW92 entry or part of it limits assumed, form in doubt): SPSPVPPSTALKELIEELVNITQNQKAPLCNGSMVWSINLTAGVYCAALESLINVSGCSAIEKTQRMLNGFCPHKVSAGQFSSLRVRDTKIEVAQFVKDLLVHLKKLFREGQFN
Assay: cell-based or functional assay

Binder | EC50, HEK293 STAT6 SEAP reporter assay, cIL-13
B13 | 2 nM
B14 | 2 nM

Biological target: T1, human IL-4
Assay: DOM9 RBA (IL-4 RBA)
Text: (§1) The wells were washed three times with 0.1% (v/v) Tween 20 in PBS, followed by three washes with PBS, before blocking with 2% (w/v) BSA in PBS. […] The reaction was stopped by the addition of HCl and the absorbance read at 450 nm.

Binder | IC50
B1 | 2.48 nM
B2 | 14.2 nM
B3 | 10.9 nM
B4 | 10.2 nM
B6 | 12.5 nM
B7 | 5.02 nM

Biological target: T1, human IL-4
Assay: IL-4 RBA: ELISA, IL-4R/Fc coated, biotinylated IL-4
Text: as §1

Binder | IC50
B15 | 4.3 nM and 6 nM

Biological target: T2, human IL-13
Assay: Biacore SPR, IL-13 surface, before and after DOM10-53-386
Experimental: Analytes were passed over the antigen-coated flow-cell, with in-line referencing against a blank flow-cell, at a flow rate of 30 μl/min in HBS-EP running buffer (Biacore).

Binder | binding result
B16 | binds
B17 | binds
B18 | binds
B19 | binds
B20 | binds
B21 | binds
B22 | binds
B23 | binds

Biological target: T2, human IL-13
Assay: IL-13 sandwich ELISA, competition with coating antibody
Experimental: A MAXISORP™ plate (high protein binding ELISA plate, Nunc, Denmark) was coated overnight with 2.5 μg/ml coating antibody (Module Set, Bender MedSystems, Vienna, Austria), then washed once with 0.05% (v/v) Tween 20 in PBS before blocking with 0.5% (w/v) BSA 0.05% (v/v) Tween 20 in PBS. […] The plate was then incubated with TMB substrate (KPL, Gaithersburg, USA), and the reaction was stopped by the addition of HCl and the absorbance read at 450 nm.

Binder | IC50 | EC50
B24 | 0.055 nM and 0.03 nM | 
B15 |  | 1 nM
